Measurements from publication doi:10.1101/2020.06.12.148387 (bioRxiv, 2020).

Target: T1, SARS-CoV-2 Spike ectodomain (pre-fusion, with proline mutations) (SARS-CoV-2, early reference strain …, residues 986 and 987 mutated to a Pro-Pro sequence)
T1 construct: also called pre-fusion Spike; trimeric Spike
Experiment: cryo-EM structure
Settings: both partners purified

B1: EY6A Fab (digested from IgG with papain) (Fab, V domains shown)
VH: EVQLVESGGGVVQPGRSLRLSCAASAFTFSSYDMHWVRQAPGKGLEWVAVISYDGSNKYYADSVKGRFTISRDNSKNTLYLQMNSLRAEDTAVYYCAKDGGKLWVYYFDYWGQGTLVTVSS
VL: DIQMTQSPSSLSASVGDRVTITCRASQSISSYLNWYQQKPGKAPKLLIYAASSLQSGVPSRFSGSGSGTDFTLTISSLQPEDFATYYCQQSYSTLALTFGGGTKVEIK
notes: also called Fab-EY6A; source: digested from ExpiCHO-made IgG with papain (Pierce Fab Preparation Kit)
- stoichiometry N: 3 Fabs per Spike trimer
